{"source": "paper PMC3688800", "key": {"human Factor Xa (human)": {"molecular_target": "human Factor Xa (human)", "assay": "enzyme inhibition assay; chromogenic or fluorogenic substrates in 96-well plates at 37°C; enzyme pre-incubated with CrataBL for 10 min; apparent Ki (Kiapp) by fit to the equation for slow-tight binding; buffer specific for each enzyme (trypsin 40 nM in 0.1 M Tris-HCl pH 8.0 with CaCl2; Factor Xa 21 nM in 0.02 M Tris-HCl pH 7.4, 0.14 M NaCl, 5.0 mM CaCl2, 0.1% BSA)"}, "bovine trypsin (bovine)": {"molecular_target": "bovine trypsin (bovine)", "assay": "enzyme inhibition assay; chromogenic or fluorogenic substrates in 96-well plates at 37°C; enzyme pre-incubated with CrataBL for 10 min; apparent Ki (Kiapp) by fit to the equation for slow-tight binding; buffer specific for each enzyme (trypsin 40 nM in 0.1 M Tris-HCl pH 8.0 with CaCl2; Factor Xa 21 nM in 0.02 M Tris-HCl pH 7.4, 0.14 M NaCl, 5.0 mM CaCl2, 0.1% BSA)"}, "[1]": {"molecular_target": "Crataeva tapia bark protein (CrataBL) (Crataeva tapia) (UniProt U3KRG0)", "assay": "SEC; Superdex 75 equilibrated in 0.15 M NaCl; at the concentration used in the crystallization trials"}}}
{"substance": "Crataeva tapia bark protein (CrataBL) (from UniProt U3KRG0 1-165) (natural protein)", "values": [{"measurement": "Ki", "setting": "human Factor Xa (human)", "value": 8.6, "unit": "µM"}, {"measurement": "Ki", "setting": "bovine trypsin (bovine)", "value": 43, "unit": "µM"}, {"measurement": "stoichiometry N", "setting": "[1]", "value": 2}]}
